Variants at the floor of the assay were thinned out.
B1: TPR 5TU (parent)
chain: GGAUCUUCUCGAUCUAACAAAAAAGACAAAUCUGCCACAAAGCUUGAGAGCAUCUUCGGAUGCAGAGGCGGCAGCCUUCGGUGGCGCGAUAGCGCCAACGUUCUCAACUAUGACACGCAAAACGCGUGCUCCGUUGAAUGGAGUUUAUCAUG

Variants of: B1
Assay: polymerase ribozyme fitness, log enrichment relative to wild type (log ratio); higher = more active; in vitro selection for triplet polymerase activity
Procedure, shortened: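 After PCR construction and transcription, each subunit's mutant library from a heterodimeric triplet polymerase ribozyme was annealed with a biotinylated primer, the partner subunit and triplets. Incubation was frozen, at −7 °C, and extended constructs were gel-excised, bound to streptavidin beads and amplified by RT-PCR, in one selection round done in triplicate. Fitness is the logarithm of a genotype's enrichment divided by that of the wild type, from inverse-variance-weighted replicate averages of Illumina-sequenced inputs and outputs. The base of the logarithm is 2, and genotypes needed ≥10 input reads and ≥1 read per output.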

Variant | polymerase ribozyme fitness (log ratio)
C27A C43A A52U U55A U56A G92U | ≤ -4.2
A28G G58U | ≤ -4.2
C27G G67C G141A A147U G152A | ≤ -4.2
A28C A73C U78G G86C A110U A113U A137C A138U | ≤ -4.2
C27U A29U U144C | ≤ -4.2
A26U G94C | -2.1
C27U G83A C95U U102A G126C | -3.56
C27G C76A C93G | ≤ -4.2
A28C G46C G84A C85U | ≤ -4.2
C27A G50C G80A C95U | ≤ -4.2
C27G U53A U102A | ≤ -4.2
C27U U55A U56A | -2.25
C27U A49C A98G C99A C125U U148C | ≤ -4.2
C27G U33C G68U | ≤ -4.2
A28G A91C G126A | ≤ -4.2
C27G C54U C76G U144G | ≤ -4.2
C27U U139A | ≤ -4.2
A28C A60G C69U G74A U135G A138U G141U | ≤ -4.2
C27U A29C G58C C85A U145A | ≤ -4.2
C27A A28U A39C C54G C96A | ≤ -4.2
C27G A37C A47C C87G A115C | ≤ -4.2

Variant | polymerase ribozyme fitness (log ratio)
C27U A41G A47C U53A U78C C93A A110U | ≤ -4.2
A28C G65U G68A A91U | ≤ -4.2
C27A G88A C96A A97G G128U U135G U145A | ≤ -4.2
C27U A41C A52C C54G C95G U102A | ≤ -4.2
C27G C95A G141C | -3.77
C27U G62U A120C A122U | -2.46
C27G A40C G48A C63A G70U G81A G92A | ≤ -4.2
C27U G34A A66G A113C A121C | ≤ -4.2
C27U A47C | -1.01
C27U A91G A147C G152U | ≤ -4.2
C27U A40U G58C G59U G92U | -2.23
A26U G59A C87G | ≤ -4.2
C27U U31G U55G G94C A113C | ≤ -4.2
C27U A28C U44G A52C C93A | -4.1
C27A G46A U53A U56G A91C A106C A110G A138G | ≤ -4.2
C27A U33C G88C G141C | ≤ -4.2
C27G A49C G50U C54U C87G | ≤ -4.2
C27U U33A G92C | -3.92
A28G A37C U55A U90C A91G | ≤ -4.2
C27A U55A G71A U77C C95U A113C C149G | ≤ -4.2
C27G C35G A49C G70C C79A C95G | ≤ -4.2

Variant | polymerase ribozyme fitness (log ratio)
C27U C87A | ≤ -4.2
C27G A37U A40C A64G G81A C95G A138C | -3.88
C27G C32U C36U G88A C99U G141U G152C | -4.05
A26U U104C G126C U146A | -2.67
C27U C54U G83U | -2.12
C27U A28G U53G A73G C85U G86C A120U C132U | ≤ -4.2
A28G A29U C87G C96A | ≤ -4.2
C27U C95U | -2.39
A28G U55A | -2.49
C27U G58C U139C | ≤ -4.2
C27G C125A | -3.93
A28G U61G C95A A97U A107U | ≤ -4.2
A28C A29U A107U A115G | ≤ -4.2
C27U G50C C114G | ≤ -4.2
C27G G48C G80A G81A A113G C118A C132U G136C A150G | ≤ -4.2
C27G A39U G74A C87G U102G | ≤ -4.2
A26U U55A G74A G92A A110U G136A | ≤ -4.2
C27U U33G G68C C69U C76U C95A C103U A110C G133A U139G | ≤ -4.2
A28G A52C U53C C57U C87A G141A | ≤ -4.2
C27U A39C G50U C123A | ≤ -4.2
A26U G68C G86U C103G A115C | ≤ -4.2

Variant | polymerase ribozyme fitness (log ratio)
A26U G83U C95G C105A G141A U146C U151C | ≤ -4.2
A28C C85G A106C A113C | ≤ -4.2
C27U G50U U55A C96A A110G G133U | -3.94
C27U C51G | -3.3
C27A A30U U44A C57A A97G A98U A119C A120G G128A | ≤ -4.2
A28G G140A | -4.13
C27G A106U | -3.92
C27U C99G G133U G141A C149G | ≤ -4.2
C27U A47G A52C G83A U146G | -3.62
C27U G92U G100A A106C G124C A138G | ≤ -4.2
A28G A41C C96A U145G | ≤ -4.2
C27U A122G | -2.4
A26U U45A G83U G92C A122U | ≤ -4.2
C27U A37C C51U C57U C95U C125A | -4.06
A26U U31A U44G C75G U102G A120C | ≤ -4.2
A28G A52C U55A G67C C149G | ≤ -4.2
A28C A49C C96U G133A U134G | -4.14
C27U C75G U78A C85U U148G | ≤ -4.2
A28G A138C C149A | ≤ -4.2
A26U U104C G124C | -3.3
